Like-named read-outs stand apart in the source and are kept apart here.
T1: monomeric human CTLA-4 (human, UniProt P16410 36-161, limits assumed)
T1 construct: Soluble monomeric analyte in SPR; also called huCTLA-4
T1 sequence: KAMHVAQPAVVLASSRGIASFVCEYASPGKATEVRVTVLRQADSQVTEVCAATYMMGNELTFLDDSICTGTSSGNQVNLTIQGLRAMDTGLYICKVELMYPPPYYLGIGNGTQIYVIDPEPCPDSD

T2: monomeric cyno CTLA-4 (cynomolgus macaque (Macaca fascicularis), UniProt G7PL88 36-161)
T2 construct: also called CTLA-4 from the cynomolgus macaque Macaca fascicularis
T2 sequence: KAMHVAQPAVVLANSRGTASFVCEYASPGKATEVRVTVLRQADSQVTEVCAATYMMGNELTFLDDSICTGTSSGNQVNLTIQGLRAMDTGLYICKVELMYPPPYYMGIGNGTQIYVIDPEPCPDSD


What was measured:
monomeric human CTLA-4 [1] = biological target: T1, monomeric human CTLA-4; test: SPR, captured Fab, pH 6.0
Description: (§1) See Example 3. Antibodies were tested as monovalent Fab fragments to simplify analysis.
(§2) Monomeric human CTLA-4 was flowed as analyte with up to 2 μM top concentration. Between cycles, the capture surface was regenerated with 75 mM phosphoric acid. Experiments were run on a BIACORE® T200 instrument at 37° C. Running buffers were HEPES buffered saline for pH 7.4 experiments and Bis-Tris buffered saline for lower pH experiments. […] Double referenced sensorgrams were fitted to a 1:1 Langmuir binding model with mass transport to determine equilibrium dissociation constants (KD), as well as association (kₐ) and dissociation (kd) rate constants where appropriate.

monomeric human CTLA-4 [2] = biological target: T1, monomeric human CTLA-4; test: SPR, captured Fab, pH 7.4
Description: as §1, §2

monomeric human CTLA-4 [3] = biological target: T1, monomeric human CTLA-4; test: SPR, captured Fab, pH 6.0; remark: listed apart in the source
Description: (§3) Binding of selected variants to human CTLA-4 was determined essentially as described in Example 3. […] Nomenclature and sequences for these antibodies is provided at Tables 6 and 7, and in the sequence listing as summarized at Table 8.
as §2

monomeric human CTLA-4 [4] = biological target: T1, monomeric human CTLA-4; test: SPR, captured Fab, pH 7.4; remark: listed apart in the source
Description: as §3, §2

monomeric human CTLA-4 [5] = biological target: T1, monomeric human CTLA-4; test: SPR, captured Fab, pH 6.0 vs 7.4
Description: as §1, §2

monomeric human CTLA-4 [6] = biological target: T1, monomeric human CTLA-4; test: SPR, captured Fab, pH 6.0 vs 7.4; remark: listed apart in the source
Description: as §3, §2

monomeric human CTLA-4 [7] = biological target: T1, monomeric human CTLA-4; test: SPR, captured Fab, first experiment of Table 3
Description: as §1, §2

[8] = biological target: T3, human CTLA-4 on 58 α-β-CTLA-4/CD3 ζ cells (human; mouse (mCD3ζ)); test: flow cytometry (APC mean FI), Fab on 58αβ-CTLA4/mCD3ζ cells, pH 6.2
T3 construct: also called 58αβ-hCTLA4/mCD3ζ cells; 58αβ-CTLA4/mCD3ζ cells
Description: Antibodies were titrated from 100 μg/mL at a 1:4 dilution across 12 points in pH-specific buffers and incubated for 30-60 minutes. Buffers contained HBSS, 2% FBS^HI, 0.02% sodium azide, 2 mM EDTA, and sodium phosphate buffer (pH 5.4). Sodium phosphate buffer was added until desired pH was reached (7.2, 6.7, 6.2). Approximately 3e5 cells/well were tested for each cell line. […] Detection was done with a monovalent anti-hKappa secondary nanobody conjugated to Alexa647 and used at a dilution of 1:2000. Cells were fixed with BD Fix Solution I for 30 minutes prior to resuspension in pH-specific buffers and reading on the cytometer (BD Fortessa).
The experimental protocol was the same as used to obtain the data of FIGS. 16A-C.

monomeric cyno CTLA-4 = biological target: T2, monomeric cyno CTLA-4; test: SPR, Fab, monomeric cyno CTLA-4 as analyte; koff (s^-1, linear axis 0 to 0.3) plotted against pH
Description: The pH dependence of binding of selected antibodies of the present invention to human CTLA-4 and cyno CTLA-4 was measured by surface plasmon resonance (SPR) spectroscopy, essentially as described in Example 3. Briefly, antibodies were studied as monovalent Fab fragments. Anti-human kappa polyclonal capture antibody (Southern Biotech, Ala. USA) was immobilized on a ethylenediamine-blocked CM4 sensor chip in a Biacore T200 surface plasmon resonance system. Fab fragments of selected antibodies of the present invention were then captured on one flow cell each. […] Running buffer was 20 mM BisTris, 150 mM NaCl, 0.05% Tween-20, 1 g/L BSA, at a pH ranging from 5.5 to 7.4 in 0.1-0.2 pH unit intervals (12 total). The surface was regenerated with 1/200 H₃PO₄ between cycles. […] Where required, the Rₘₐₓ was fixed by calculating expected binding based on capture level and apparent activity from other fits for the same Fab.

monomeric human CTLA-4 [9] = biological target: T1, monomeric human CTLA-4; test: SPR, pH 6.0 and pH 7.5 (FIG. 6)
Description: Unless otherwise indicated, experiments were performed with a BIACORE® SPR surface plasmon resonance spectrometer (Biacore AB, Uppsala, Sweden). Antibodies were tested as monovalent Fab fragments to simplify analysis.
as §2

Binder | Kd (monomeric human CTLA-4 [1]) [nM] | koff (monomeric human CTLA-4 [1]) [s⁻¹] | kon (monomeric human CTLA-4 [1]) [M⁻¹ s⁻¹] | Kd (monomeric human CTLA-4 [2]) [nM] | koff (monomeric human CTLA-4 [2]) [s⁻¹] | kon (monomeric human CTLA-4 [2]) [M⁻¹ s⁻¹] | Kd (monomeric human CTLA-4 [3]) [nM] | kon (monomeric human CTLA-4 [3]) [M⁻¹ s⁻¹] | t1/2 (monomeric human CTLA-4 [3]) [s] | Kd (monomeric human CTLA-4 [4]) [nM] | kon (monomeric human CTLA-4 [4]) [M⁻¹ s⁻¹] | t1/2 (monomeric human CTLA-4 [4]) [s] | KD 7.4/6 (APBP) (monomeric human CTLA-4 [5]) | ka 6/7.4 (monomeric human CTLA-4 [5]) | kd 7.4/6 (monomeric human CTLA-4 [5]) | KD 7.4/6 (APBP) (monomeric human CTLA-4 [6]) | ka 6/7.4 (monomeric human CTLA-4 [6]) | t1/2 6/7.4 (monomeric human CTLA-4 [6]) | ratio of KD (7.4/6.0) normalized to the ratio of ipilimumab (monomeric human CTLA-4 [7]) | EC50 (read off the curve) [8] [µg/mL] | further results
ipi.17 Fab (Fab, V domains shown, Tested as monovalent Fab; also called S28E) VH: QVQLVESGGGVVQPGRSLRLSCAASGFTFSSYTMHWVRQAPGKGLEWVTFISYDGNNKYYADSVKGRFTISRDNSKNTLYLQMNSLRAEDTAIYYCARTGWLGPFDYWGQGTLVTVSS VL: not shown | 14 | 0.015 | 1e+06 | 19 | 0.016 | 850000 | 14 | 1e+06 | 46 | 19 | 850000 | 43 | 1.4 | 1.2 | 1.1 | 1.3 | 1.2 | 1.1 | 1.4 | – | –
ipi.105 Fab (Fab, V domains shown, Tested as monovalent Fab) VH: QVQLVESGGGVVQPGRSLRLSCAASGFTFSHYTMHWVRQAPGKGLEWVTFISYDGHNKYYADSVKGRFTISRDNSKNTLYLQMNSLRAEDTAIYYCARTGWLGPFDYWGQGTLVTVSS VL: EIVLTQSPGTLSLSPGERATLSCRASQEVGESELAWYQQKPGQAPRLLIYGAFSRATGIPDRFSGSGSGTDFTLTISRLEPEDFAVYYCQQYGSSPWTFGQGTKVEIKR | – | – | – | – | – | – | 2.5 | 1.3e+06 | 217 | 390 | – | – | – | – | – | 76 | – | – | – | ~0.2 | binding result (monomeric cyno CTLA-4): binds
ipi.101 Fab (Fab, V domains shown, Tested as monovalent Fab) VH: QVQLVESGGGVVQPGRSLRLSCAASGFTFSHYTMHWVRQAPGKGLEWVTFISYDGHNKYYADSVKGRFTISRDNSKNTLYLQMNSLRAEDTAIYYCARTGWLGPFDYWGQGTLVTVSS VL: not shown | – | – | – | – | – | – | 1.5 | 1.2e+06 | 385 | 45 | 490000 | 32 | – | – | – | 31 | 2.5 | 12 | – | ~0.07 | binding result (monomeric cyno CTLA-4): binds
ipi.57 Fab (Fab, V domains shown, Tested as monovalent Fab; also called HCDR1 S31H) VH: QVQLVESGGGVVQPGRSLRLSCAASGFTFSHYTMHWVRQAPGKGLEWVTFISYDGNNKYYADSVKGRFTISRDNSKNTLYLQMNSLRAEDTAIYYCARTGWLGPFDYWGQGTLVTVSS VL: not shown | – | – | – | – | – | – | 7.9 | 1.1e+06 | 83 | 28 | 800000 | 32 | – | – | – | 3.5 | 1.3 | 2.7 | – | – | CAPBP (ratio of KD normalized to ipilimumab) (monomeric human CTLA-4 [9]): 5.5
ipi.18 Fab (Fab, V domains shown, Tested as monovalent Fab; also called S31D) VH: QVQLVESGGGVVQPGRSLRLSCAASGFTFSSYTMHWVRQAPGKGLEWVTFISYDGNNKYYADSVKGRFTISRDNSKNTLYLQMNSLRAEDTAIYYCARTGWLGPFDYWGQGTLVTVSS VL: not shown | 8.8 | 0.0093 | 1.1e+06 | 28 | 0.018 | 640000 | 8.8 | 1.1e+06 | 75 | 28 | 640000 | 39 | 3.2 | 1.7 | 1.9 | 3.1 | 1.7 | 1.9 | 3.2 | – | –

From patent publication US20220193237A1 (Bristol-Myers Squibb, published 2022)
